Data as given in publication PMC3935999, “Post-Translational Modifications Modulate Ligand Recognition by the Third PDZ Domain of the MAGUK Protein PSD-95” (PLoS ONE, 2014).
One block for each molecule: values may come before it.

Legend:
[1] = target: KKETAV hexapeptide (optimised consensus C-terminal ligand of PSD-95 PDZ3); assay: ITC (MicroCal ITC-200); conditions: pH 7.5, 25 °C, no added salt stated (50 mM potassium phosphate only)
[2] = target: KKETAV hexapeptide (optimised consensus C-terminal ligand of PSD-95 PDZ3); assay: ITC (quoted from ref. 19, Saro et al. 2007); conditions: pH 6.0, 25 °C, 10 mM NaCl, 20 mM MES; cited from earlier work
CRIPT (Homo sapiens) [3] = assay: ITC; conditions: cited from earlier work
KKETAV peptide = assay: ITC; conditions: cited from earlier work
CRIPT (Homo sapiens) [4] = assay: ITC; conditions: cited from earlier work; remark: listed apart in the source
CRIPT (Homo sapiens) [5] = assay: ITC; conditions: cited from earlier work; remark: listed apart in the source
[6] = target: T1, PDZ3 domain of PSD-95 (wild type, residues 302-403) (UniProt P31016 302-403); assay: ITC; KKETAV (900 µM; 3 mM for D332P-PDZ3) injected into the protein in the cell (70 µM; 200 µM for D332P-PDZ3); 25°C; 50 mM potassium phosphate pH 7.5; single set of identical sites model; conditions: both partners purified
T1 construct: Postsynaptic density protein-95 (PSD-95; SAP-90; DLG-4), third PDZ domain with the α3 helix, residues 302-403 of the full PSD-95 protein; PDB 1BE9 is a longer construct of the same domain; 15N-labelled for NMR; also called PSD-95-PDZ3; WT-PDZ3; source: E. coli BL21/DE3, purified

[7] = target: T2, Δ10ct-PDZ3 (PSD-95 residues 302-393, without the α3 helix) (UniProt P31016 302-393); assay: as above; conditions: both partners purified
T2 construct: PSD-95 third PDZ domain truncated of its ten C-terminal residues (α3 helix), residues 302-393 of the full PSD-95 protein; 15N-labelled for NMR; source: E. coli BL21/DE3, purified
T2 sequence (P31016 302-393, stated change not applied): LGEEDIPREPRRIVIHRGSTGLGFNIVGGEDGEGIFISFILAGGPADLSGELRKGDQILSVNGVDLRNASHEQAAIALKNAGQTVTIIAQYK

T1 sequence (P31016 302-403): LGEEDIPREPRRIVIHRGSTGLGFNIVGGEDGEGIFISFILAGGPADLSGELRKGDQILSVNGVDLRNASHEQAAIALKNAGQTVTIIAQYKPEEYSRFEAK

ΔG [1]: -8 kcal/mol
Molecule: PSD-95 (DLG4/SAP-90) third PDZ domain, PDZ3, wild type
Kd [2]: 450 nM
ΔG [2]: -8.7 kcal/mol

Molecule: PSD-95 PDZ3 (from UniProt P78352)
Kd (CRIPT (Homo sapiens) [3]): 14000 nM
Kd (KKETAV peptide): 450 nM
Kd (CRIPT (Homo sapiens) [4]): 3600 nM
Kd (CRIPT (Homo sapiens) [5]): 1000 nM

stoichiometry N [6]: 0.99
Kd [7]: 3600 nM
dH [7]: -8.8 kcal/mol
stoichiometry N [7]: 0.9
B1: KKETAV hexapeptide (peptide)
peptide: KKETAV
notes: residues numbered from 0 (C-terminal Val) to -5 (N-terminal Lys); also called KKETAV ligand; consensus hexapeptide; source: bought: Peptide 2.0 (USA)
